Reference: paper PMC9482650, “Quantitative fragmentomics allow affinity mapping of interactomes” (Nature Communications, 2022)

B1: LRRC4B, Q9NT99 (peptide)
chain: SKENVQETQI
B2: KCNJ1, P48048 (peptide)
chain: EVNETDDTKM

Experiments:
Assay in all cases: holdup assay
Set-up in all cases: key: below the threshold = too weak to quantify, mostly under pKd 3.1 to 4
Details in all cases: plain residues with an end cap or a label only (N-terminal biotin on a linker: ado-ado)
APBA2_2, Q99767 = biological target: T1, APBA2_2, Q99767
T1 sequence (Q99767 654-744, limits assumed, looked up): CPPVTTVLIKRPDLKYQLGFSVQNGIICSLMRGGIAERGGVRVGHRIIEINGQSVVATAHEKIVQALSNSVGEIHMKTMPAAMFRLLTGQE

CARD11, Q9BXL7 = biological target: T2, CARD11, Q9BXL7
T2 sequence (Q9BXL7 662-765, limits assumed, looked up): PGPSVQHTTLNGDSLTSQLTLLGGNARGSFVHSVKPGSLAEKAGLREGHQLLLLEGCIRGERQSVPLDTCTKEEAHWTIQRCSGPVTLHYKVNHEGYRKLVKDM

CASK, O14936 = biological target: CASK, O14936
Chain of CASK, O14936 (O14936 487-570): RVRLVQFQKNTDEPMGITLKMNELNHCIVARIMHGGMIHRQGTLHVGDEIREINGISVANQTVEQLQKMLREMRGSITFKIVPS

DFNB31_2, Q9P202 = biological target: T3, DFNB31_2, Q9P202
T3 sequence (Q9P202 274-371, limits assumed, looked up): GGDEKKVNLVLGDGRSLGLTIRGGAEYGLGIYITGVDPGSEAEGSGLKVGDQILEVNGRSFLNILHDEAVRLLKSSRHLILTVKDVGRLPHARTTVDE

DLG3_2, Q92796 = biological target: T4, DLG3_2, Q92796
T4 sequence (Q92796 221-321, limits assumed, looked up): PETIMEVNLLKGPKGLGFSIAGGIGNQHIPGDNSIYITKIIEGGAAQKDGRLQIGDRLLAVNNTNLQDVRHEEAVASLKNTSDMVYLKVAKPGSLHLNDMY

DLG3_3, Q92796 = biological target: T5, DLG3_3, Q92796
T5 sequence (Q92796 374-475, limits assumed, looked up): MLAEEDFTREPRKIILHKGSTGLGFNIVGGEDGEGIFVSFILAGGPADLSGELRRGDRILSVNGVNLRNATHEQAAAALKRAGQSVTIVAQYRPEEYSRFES

DLG4_1, P78352 = biological target: DLG4_1, P78352
Chain of DLG4_1, P78352 (P78352 62-152): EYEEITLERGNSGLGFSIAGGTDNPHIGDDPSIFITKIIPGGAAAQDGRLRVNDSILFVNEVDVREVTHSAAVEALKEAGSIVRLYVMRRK

FRMPD2_3, Q68DX3 = biological target: FRMPD2_3, Q68DX3
Chain of FRMPD2_3, Q68DX3 (Q68DX3 1073-1166): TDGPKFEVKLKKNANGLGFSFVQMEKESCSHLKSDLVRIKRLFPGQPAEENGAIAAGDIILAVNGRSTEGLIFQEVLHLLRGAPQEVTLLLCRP

GRIP2_3, Q9C0E4 = biological target: GRIP2_3, Q9C0E4
Chain of GRIP2_3, Q9C0E4 (Q9C0E4 238-339): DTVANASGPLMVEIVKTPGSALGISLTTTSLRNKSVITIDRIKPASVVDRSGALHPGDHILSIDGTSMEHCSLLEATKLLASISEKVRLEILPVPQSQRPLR

GRIP2_4, Q9C0E4 = biological target: GRIP2_4, Q9C0E4
Chain of GRIP2_4, Q9C0E4 (Q9C0E4 446-548): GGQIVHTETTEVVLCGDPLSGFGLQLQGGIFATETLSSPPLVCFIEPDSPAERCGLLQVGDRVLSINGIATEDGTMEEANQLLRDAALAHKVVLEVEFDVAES

GRIP2_5, Q9C0E4 = biological target: GRIP2_5, Q9C0E4
Chain of GRIP2_5, Q9C0E4 (Q9C0E4 544-642): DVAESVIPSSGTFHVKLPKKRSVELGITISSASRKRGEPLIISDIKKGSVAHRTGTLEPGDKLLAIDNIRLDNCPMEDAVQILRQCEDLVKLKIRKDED

GRIP2_6, Q9C0E4 = biological target: GRIP2_6, Q9C0E4
Chain of GRIP2_6, Q9C0E4 (Q9C0E4 648-740): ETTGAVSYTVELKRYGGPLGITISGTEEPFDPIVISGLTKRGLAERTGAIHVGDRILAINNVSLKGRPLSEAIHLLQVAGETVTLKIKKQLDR

IL16_3, Q14005 = biological target: IL16_3, Q14005
Chain of IL16_3, Q14005 (Q14005 1107-1207): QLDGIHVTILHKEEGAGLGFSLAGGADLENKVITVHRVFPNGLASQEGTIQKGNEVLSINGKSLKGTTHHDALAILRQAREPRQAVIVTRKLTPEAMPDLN

Inadl_1, Q8NI35 = biological target: Inadl_1, Q8NI35
Chain of Inadl_1, Q8NI35 (Q8NI35 113-229): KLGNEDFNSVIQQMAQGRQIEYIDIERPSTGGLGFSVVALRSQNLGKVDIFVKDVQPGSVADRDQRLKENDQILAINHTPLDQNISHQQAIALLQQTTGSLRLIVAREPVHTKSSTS

Inadl_8, Q8NI35 = biological target: Inadl_8, Q8NI35
Chain of Inadl_8, Q8NI35 (Q8NI35 1425-1530): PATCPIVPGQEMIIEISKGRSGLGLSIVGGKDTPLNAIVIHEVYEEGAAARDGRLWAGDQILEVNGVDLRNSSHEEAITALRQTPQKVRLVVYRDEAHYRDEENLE

LDB3, O75112 = biological target: LDB3, O75112
Chain of LDB3, O75112 (O75112 1-94): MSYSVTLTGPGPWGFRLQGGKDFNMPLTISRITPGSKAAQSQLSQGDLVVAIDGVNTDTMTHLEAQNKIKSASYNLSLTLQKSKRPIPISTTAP

LIMK2, P53671 = biological target: LIMK2, P53671
Chain of LIMK2, P53671 (P53671 143-248): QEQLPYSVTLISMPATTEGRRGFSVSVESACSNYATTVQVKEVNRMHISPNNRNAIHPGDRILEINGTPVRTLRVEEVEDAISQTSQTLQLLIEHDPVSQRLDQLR

LNX2_2, Q8N448 = biological target: T6, LNX2_2, Q8N448
T6 sequence (Q8N448 334-432, limits assumed, looked up): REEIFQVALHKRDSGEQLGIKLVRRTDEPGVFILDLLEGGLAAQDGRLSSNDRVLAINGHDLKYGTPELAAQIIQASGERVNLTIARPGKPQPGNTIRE

MAGI2_4, Q86UL8 = biological target: MAGI2_4, Q86UL8
Chain of MAGI2_4, Q86UL8 (Q86UL8 772-865): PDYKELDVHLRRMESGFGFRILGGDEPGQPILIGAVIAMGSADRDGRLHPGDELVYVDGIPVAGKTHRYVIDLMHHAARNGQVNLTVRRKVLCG

MAGI2_6, Q86UL8 = biological target: MAGI2_6, Q86UL8
Chain of MAGI2_6, Q86UL8 (Q86UL8 1141-1229): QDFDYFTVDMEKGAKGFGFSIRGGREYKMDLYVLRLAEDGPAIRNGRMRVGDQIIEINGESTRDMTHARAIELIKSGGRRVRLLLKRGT

MAGI3_2, Q5TCQ9 = biological target: MAGI3_2, Q5TCQ9
Chain of MAGI3_2, Q5TCQ9 (Q5TCQ9 398-503): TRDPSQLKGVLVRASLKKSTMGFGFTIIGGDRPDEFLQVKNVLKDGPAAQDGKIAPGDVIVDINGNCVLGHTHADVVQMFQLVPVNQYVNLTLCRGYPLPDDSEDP

MPDZ_12, O75970 = biological target: T7, MPDZ_12, O75970
T7 sequence (O75970 1857-1958, limits assumed, looked up): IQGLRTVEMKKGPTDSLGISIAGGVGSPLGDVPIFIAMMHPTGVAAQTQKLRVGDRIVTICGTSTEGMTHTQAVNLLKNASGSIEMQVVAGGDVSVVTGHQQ

MPP2, Q14168 = biological target: T8, MPP2, Q14168
T8 sequence (Q14168 180-250, limits assumed, looked up): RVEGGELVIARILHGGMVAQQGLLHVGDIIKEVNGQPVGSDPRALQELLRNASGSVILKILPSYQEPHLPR

PDZD7_3, Q9H5P4 = biological target: T9, PDZD7_3, Q9H5P4
T9 sequence (Q9H5P4 857-944, limits assumed, looked up): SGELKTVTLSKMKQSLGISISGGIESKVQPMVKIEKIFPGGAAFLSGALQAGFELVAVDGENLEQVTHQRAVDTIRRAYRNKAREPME

PTPN3, P26045 = biological target: PTPN3, P26045
Chain of PTPN3, P26045 (P26045 505-587): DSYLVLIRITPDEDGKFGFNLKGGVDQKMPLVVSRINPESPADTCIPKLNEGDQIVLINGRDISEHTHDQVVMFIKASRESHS

SHANK1, Q9Y566 = biological target: T10, SHANK1, Q9Y566
T10 sequence (Q9Y566 658-767, limits assumed, looked up): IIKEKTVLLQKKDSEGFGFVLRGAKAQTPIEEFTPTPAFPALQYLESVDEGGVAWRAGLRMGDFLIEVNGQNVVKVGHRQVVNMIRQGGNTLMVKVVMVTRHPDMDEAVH

TJP1_3, Q07157 = biological target: TJP1_3, Q07157
Chain of TJP1_3, Q07157 (Q07157 416-512): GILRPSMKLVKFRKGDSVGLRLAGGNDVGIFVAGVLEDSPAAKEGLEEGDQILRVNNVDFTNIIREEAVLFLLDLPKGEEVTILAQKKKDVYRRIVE

TJP3_3, O95049 = biological target: T11, TJP3_3, O95049
T11 sequence (O95049 375-456, limits assumed, looked up): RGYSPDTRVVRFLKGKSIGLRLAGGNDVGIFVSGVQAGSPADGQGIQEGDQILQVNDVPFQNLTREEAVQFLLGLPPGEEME

pKd (APBA2_2, Q99767) | pKd (CARD11, Q9BXL7) | pKd (CASK, O14936) | pKd (DFNB31_2, Q9P202) | pKd (DLG3_2, Q92796) | pKd (DLG3_3, Q92796) | pKd (DLG4_1, P78352) | pKd (FRMPD2_3, Q68DX3) | pKd (GRIP2_3, Q9C0E4) | pKd (GRIP2_4, Q9C0E4) | pKd (GRIP2_5, Q9C0E4) | pKd (GRIP2_6, Q9C0E4) | pKd (IL16_3, Q14005) | pKd (Inadl_1, Q8NI35) | pKd (Inadl_8, Q8NI35) | pKd (LDB3, O75112) | pKd (LIMK2, P53671) | pKd (LNX2_2, Q8N448) | pKd (MAGI2_4, Q86UL8) | pKd (MAGI2_6, Q86UL8) | also measured | Binder
below the threshold | below the threshold | below the threshold | below the threshold | 4.69 | 3.68 | 4.02 | below the threshold | below the threshold | below the threshold | below the threshold | below the threshold | below the threshold | below the threshold | below the threshold | below the threshold | below the threshold | below the threshold | below the threshold | 3.92 | pKd (MAGI3_2, Q5TCQ9): 4.37; pKd (MPDZ_12, O75970): 3.48; pKd (MPP2, Q14168): below the threshold; pKd (PDZD7_3, Q9H5P4): 5.39; pKd (PTPN3, P26045): 4.8; pKd (SHANK1, Q9Y566): 3.98; pKd (TJP1_3, Q07157): below the threshold; pKd (TJP3_3, O95049): below the threshold | B1
below the threshold | below the threshold | below the threshold | below the threshold | 3.63 | below the threshold | below the threshold | below the threshold | 3.69 | below the threshold | below the threshold | 3.52 | below the threshold | 3.48 | below the threshold | below the threshold | below the threshold | below the threshold | 3.63 | 3.56 | pKd (MAGI3_2, Q5TCQ9): below the threshold; pKd (MPDZ_12, O75970): below the threshold; pKd (MPP2, Q14168): below the threshold; pKd (PDZD7_3, Q9H5P4): 4.38; pKd (PTPN3, P26045): 4.35; pKd (SHANK1, Q9Y566): 3.73; pKd (TJP1_3, Q07157): below the threshold; pKd (TJP3_3, O95049): below the threshold | B2
